In PMC9249894 (2022):

Target: Ubiquitin (Homo sapiens, UniProt P0CG48)
Assay: NMR titration

Kd: 370 µM
B1: CIN85 SH3c 263-333 (protein)
chain: DSRTKSKDYCKVIFPYEAQNDDELTIKEGDIVTLINKDCIDVGWWEGELNGRRGVFPDNFVKLLPPDFEKE
